Experiment [1] addresses T1, recombinant C-terminally truncated RSV (A2 strain) F protein (RSV (A2 strain), UniProt P03420 26-524).
T1 construct: extracellular domain; also called truncated F protein; extracellular domain of the F protein from RSV A2
In words: SPR (BIAcore).

The target of experiment [2] is T2, F protein of RSV (Long strain) (RSV (Long strain), UniProt P12568 26-574). As to the kind of experiment: cell-based or functional assay.
In experiment [3] the target is T2, F protein of RSV (Long strain). In words: cell-based or functional assay. This is another data set of the same source.
For experiment [4], the target named is T3, RSV F glycoprotein (NUF4) (respiratory syncytial virus).
T3 chain 1: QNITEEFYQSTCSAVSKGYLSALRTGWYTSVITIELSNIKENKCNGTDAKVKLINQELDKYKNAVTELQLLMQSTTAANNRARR
T3 chain 2: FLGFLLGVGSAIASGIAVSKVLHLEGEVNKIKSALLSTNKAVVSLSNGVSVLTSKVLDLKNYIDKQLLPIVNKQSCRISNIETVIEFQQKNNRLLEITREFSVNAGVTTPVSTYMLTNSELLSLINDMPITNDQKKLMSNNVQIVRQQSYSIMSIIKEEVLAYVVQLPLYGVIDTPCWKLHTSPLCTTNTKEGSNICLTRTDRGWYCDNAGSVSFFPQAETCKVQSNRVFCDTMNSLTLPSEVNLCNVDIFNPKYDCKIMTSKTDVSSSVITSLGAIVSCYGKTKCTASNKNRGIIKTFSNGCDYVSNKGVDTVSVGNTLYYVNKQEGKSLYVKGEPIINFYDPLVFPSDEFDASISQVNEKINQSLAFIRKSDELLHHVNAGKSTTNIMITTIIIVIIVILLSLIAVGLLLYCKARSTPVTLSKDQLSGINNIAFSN
As to the kind of experiment: SPR (BIAcore), mAb vs NUF4 (1:1). A general note: In SPR one partner is held on a chip, and binding of the other changes the refractive index at the surface.

The target of experiment [5] is T3, RSV F glycoprotein (NUF4). In words: SPR (BIAcore), mAb vs NUF4 (2:1).
Another experiment deals with Bac-F (respiratory syncytial virus). In words: SPR (BIAcore), mAb vs Bac-F (1:1).
In experiment [6] the target is T1, recombinant C-terminally truncated RSV …. In words: SPR (BIAcore), IgG over immobilised F.
In experiment [7] the target is T2, F protein of RSV (Long strain). As to the kind of experiment: cell-based or functional assay. This is another data set of the same source.
Another experiment addresses RSV F protein (purified) (respiratory syncytial virus). As to the kind of experiment: SPR (BIAcore), F protein immobilised.
Experiment [8] deals with T1, recombinant C-terminally truncated RSV …. As to the kind of experiment: SPR (BIAcore), Fab over immobilised F.
Experiment [9] addresses T2, F protein of RSV (Long strain). In words: cell-based or functional assay. This is another data set of the same source.
In a further experiment the target is T4, human FcRn (human).
T4 construct: also called recombinant human FcRn
T4 sequence (chain, as listed by the source limits assumed, chain 1 of 2): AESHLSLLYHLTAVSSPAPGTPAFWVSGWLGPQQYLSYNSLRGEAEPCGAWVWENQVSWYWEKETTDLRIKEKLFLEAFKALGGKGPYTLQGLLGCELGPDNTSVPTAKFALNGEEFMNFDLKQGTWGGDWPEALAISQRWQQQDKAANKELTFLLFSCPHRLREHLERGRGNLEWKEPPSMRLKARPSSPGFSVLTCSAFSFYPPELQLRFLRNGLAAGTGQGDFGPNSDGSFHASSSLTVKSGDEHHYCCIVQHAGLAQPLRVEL
T4 sequence (P61769 21-119 limits assumed, chain 2 of 2): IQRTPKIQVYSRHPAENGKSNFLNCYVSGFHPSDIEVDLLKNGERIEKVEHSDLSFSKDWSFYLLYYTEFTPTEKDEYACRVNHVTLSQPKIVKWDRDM
In words: SPR (BIAcore 3000), FcRn over immobilised IgG, pH 6.0, one-site fit.

The target of a further experiment is T5, Cynomolgus Monkey FcRn (Cynomolgus Monkey, UniProt Q8SPV9 24-290; Q8SPW0 21-119).
T5 construct: also called Cynomolgus FcRn
Described as above.

For experiment [10], the target named is T1, recombinant C-terminally truncated RSV …. As to the kind of experiment: SPR (BIAcore), IgG over immobilised F. This is another data set of the same source.
The target in experiment [11] is T3, RSV F glycoprotein (NUF4). In words: ITC, NUF4 titrated into antibody, 35 C. (Isothermal titration calorimetry measures the heat released or taken up as one component is titrated into another.)
Method: The binding thermodynamics of the antibodies were determined from ITC measurements using a Microcal, Inc. VP Titration Calorimeter. The VP titration calorimeter consists of a matched pair of sample and reference vessels (1.409 ml) enclosed in an adiabatic enclosure and a rotating stirrer-syringe for titrating ligand solutions into the sample vessel. The ITC measurements were performed at 25° C. and 35° C. The sample vessel contained the antibody in the phosphate buffer while the reference vessel contained just the buffer solution. The phosphate buffer solution was saline 67 mM PO₄ at pH 7.4 from HyClone, Inc. Five or ten μl aliquots of the 0.05 to 0.1 mM NUF4 solution were titrated 3 to 4 minutes apart into the antibody sample solution until the binding was saturated as evident by the lack of a heat exchange signal. […] This was attributed to a heat of dilution of the NUF4 titrant and was subtracted from the titrant heats obtained during the titration prior to analysis of the data.
A non-linear, least square minimization software program from Microcal, Inc., Origin 5.0, was used to fit the incremental heat of the ith titration (ΔQ (i)) of the total heat, Qₜ, to the total titrant concentration, Xₜ, according to the following equations (I),

The results in this text go back to patent publication US20110158985A1 (published 2011).

Positions count from the first letter of the chain named. Numbers in names are those of the source. Where “and” joins values, the source holds several entries; their conditions need not be identical. Identical values can stand only once.

Method for Cynomolgus Monkey FcRn: (§1) Human and Cynomolgus Monkey FcRn were buffer-exchanged against 50 mM Phosphate Buffered Saline (PBS) pH 6.0 or 7.4 containing 0.05% Tween 20. Dilutions were made in the same buffers. […] FcRn was also flowed over an uncoated cell and the sensorgrams from these blank runs subtracted from those obtained with IgG-coupled chips. Runs were analyzed using the software BIAevaluation 3.1 (Pharmacia). Dissociation constants (Kds) were determined by fitting the binding isotherms to a one-site binding model using GraphPad Prism (GraphPad Software, Inc., CA). Errors were estimated as the mean standard deviation for at least 2 independent determinations.
Method for human FcRn: as §1

B1: A12a6 IgG (antibody, V domains shown)
VH: QVTLRESGPALVKPTQTLTLTCTFSGFSLSTAGMSVGWIRQPPGKALEWLADIWWDGKKDYNPSLKDRLTISKDTSKNQVVLKVTNMDPADTATYYCARDMIFNFYFDVWGQGTTVTVSS
VL: DIQMTQSPSTLSASVGDRVTITCSASSRVGYMHWYQQKPGKAPKLLIYDTFKLSSGVPSRFSGSGSGTEFTLTISSLQPDDFATYYCFQGSGYPFTFGGGTKVEIKR
The Kd is the constant that tells how readily two partners part at equilibrium. In general, koff refers to the first-order rate constant of dissociation. What is called kon is a measure of how fast the partners come together. For B1, the “fold improvement in koff upon IgG conversion (against its Fab)” value in experiment [1] worked out at 13 fold. Besides, in experiment [2], the “Mean IC50 (Control)” value is 0.0354 µg/mL and the “Mean IC50 (Curve)” value worked out at 0.0357 µg/mL. Moreover, in experiment [3], the “Microneutralization IC50, IgG” value was 0.0357 µg/ml and 0.24 nM. Besides, in experiment [4], the Kd worked out at 0.73 nM, the “fold in parentheses (palivizumab = 1)” value came out at 12 fold, the koff was determined as 0.000291 s⁻¹ and the kon was 400000 M⁻¹ s⁻¹. Also, in [5], the Kd was determined as 1.87 nM, the “fold in parentheses (palivizumab = 1)” value was found to be 167 fold, the koff is 0.000408 s⁻¹ and the kon was determined as 218000 M⁻¹ s⁻¹. In the experiment with Bac-F, binding was put at a Kd of 0.04 nM and the “fold in parentheses (palivizumab = 1)” value worked out at 98 fold. Further, in experiment [6], the Kd was 0.036 nM, the koff is 1.65e-05 s⁻¹ and the kon came to 460000 M⁻¹ s⁻¹.

B2: P12f2 Fab (Fab, V domains shown)
VH: B1 VH with A32P, G57D, D60H
VL: DIQMTQSPSTLSASVGDRVTITCSLSSRVGYMHWYQQKPGKAPKLLIYDTFYLSSGVPSRFSGSGSGTEFTLTISSLQPDDFATYYCFQGSGYPFTFGGGTKVEIK
As usually defined, the IC50 is the concentration needed to halve the response being measured. B2: the “IC50” value in [7] stood at 0.65 nM. Besides, in experiment [2], the “Mean IC50 (Control)” value was 0.0326 µg/mL and the “Mean IC50 (Curve)” value stood at 0.0407 µg/mL. In experiment [3], the “Microneutralization IC50, Fab” value was 0.0407 µg/ml and 0.81 nM. For the same molecule, in the experiment with RSV F protein (purified), the koff is 0.000282 s⁻¹ and the kon was determined as 663000 M⁻¹ s⁻¹. In [8], the Kd is 0.135 nM, the koff was 7.2e-05 s⁻¹ and the kon worked out at 535000 M⁻¹ s⁻¹.

B3: A4B4L1FR-S28R (MEDI-524) (antibody, human IgG1, kappa)
heavy: not shown
light: DIQMTQSPSTLSASVGDRVTITCSASSRVGYMHWYQQKPGKAPKLLIYDTSKLASGVPSRFSGSGSGTEFTLTISSLQPDDFATYYCFQGSGYPFTFGGGTKVEIKRTVAAPSVFIFPPSDEQLKSGTASVVCLLNNFYPREAKVQWKVDNALQSGNSQESVTEQDSKDSTYSLSSTLTLSKADYEKHKVYACEVTHQGLSSPVTKSFNRGEC
For the molecule B3, the “RSV microneutralization, average IC50” value in experiment [9] was determined as 0.018 µg/mL. In addition, the figures for the Kd with human FcRn and with Cynomolgus Monkey FcRn were 2250 nM and 1200 nM, respectively.

B4: A12a6 Fab (Fab, V domains shown)
VH: B1 VH
VL: B2 VL with L25A, Y52K
Regarding B4, in experiment [7], the midpoint of inhibition, the IC50, lay at 0.62 nM. Also, in [2], the “Mean IC50 (Control)” value amounted to 0.031 µg/mL and the “Mean IC50 (Curve)” value was found to be 0.0287 µg/mL. Moreover, the “Microneutralization IC50, Fab” value in experiment [3] was 0.0287 µg/ml and 0.57 nM. In addition, in the experiment with RSV F protein (purified), the koff was 0.00023 s⁻¹ and the kon came to 743000 M⁻¹ s⁻¹. Also, in experiment [8], the dissociation constant (Kd) was 0.422 nM, the koff turned out to be 0.000219 s⁻¹ and the kon amounted to 519000 M⁻¹ s⁻¹.

B5: P11d4 IgG (antibody, V domains shown)
VH: B1 VH with A32P, D60H, F105W
VL: B1 VL with A25P, F51M, K52R, S54A
As for B5, in experiment [2], the “Mean IC50 (Control)” value was determined as 0.0289 µg/mL and the “Mean IC50 (Curve)” value was determined as 0.0217 µg/mL. Moreover, the “Microneutralization IC50, IgG” value in experiment [3] was 0.0217 µg/ml and 0.14 nM. Besides, in experiment [4], the Kd came to 0.85 nM, the “fold in parentheses (palivizumab = 1)” value came to 10 fold, the koff was 0.000766 s⁻¹ and the on-rate constant (kon) is 904000 M⁻¹ s⁻¹. Further, in experiment [5], the Kd came out at 8.55 nM, the “fold in parentheses (palivizumab = 1)” value turned out to be 36 fold, the koff is 0.00313 s⁻¹ and the kon worked out at 366000 M⁻¹ s⁻¹. Moreover, the “fold improvement in kon over palivizumab” value in experiment [10] came out at 4 fold. Also, in the experiment with Bac-F, the Kd is 0.62 nM and the “fold in parentheses (palivizumab = 1)” value turned out to be 6 fold. In addition, in experiment [6], the Kd came to 0.62 nM, the koff stood at 0.000289 s⁻¹ and the on-rate (kon) worked out at 466000 M⁻¹ s⁻¹.

B6: A4B4 IgG (antibody, V domains shown)
VH: B1 VH with G57D, D60H
VL: B1 VL with K52F, S54D
On to B6, for which, in [2], the “Mean IC50 (Control)” value was 0.0154 µg/mL and the “Mean IC50 (Curve)” value amounted to 0.0171 µg/mL. Also, the “Microneutralization IC50, IgG” value in experiment [3] is 0.104 µg/ml and 0.069 nM. Also, in experiment [4], binding was characterised by a dissociation constant (Kd) of 0.57 nM, the “fold in parentheses (palivizumab = 1)” value came to 15 fold, the koff was determined as 0.000282 s⁻¹ and the kon turned out to be 496000 M⁻¹ s⁻¹. In [5], the Kd came out at 2 nM, the “fold in parentheses (palivizumab = 1)” value came to 156 fold, the koff was determined as 0.000401 s⁻¹ and the kon was determined as 203000 M⁻¹ s⁻¹. Further, in experiment [10], the “fold improvement in affinity over palivizumab” value came out at 125 fold, the “fold improvement in koff over palivizumab” value turned out to be 28 fold and the “fold improvement in kon over palivizumab” value came to 4 fold. Further, in experiment [6], the dissociation constant Kd is 0.027 nM, the off-rate constant (koff) came to 1.51e-05 s⁻¹ and the kon was found to be 553000 M⁻¹ s⁻¹. For the same molecule, in [11], the Ka came out at 2.69e+08 M⁻¹, the Kd is approximately 3.7 nM and the ΔHb was 22.2 kcal/mol.

B7: A13c4 Fab (Fab, V domains shown)
VH: B1 VH with D60S
VL: B2 VL with F51M, L53Q
Consider B7, for which the “IC50” value in [7] came to 0.52 nM. Besides, in experiment [2], the “Mean IC50 (Control)” value is 0.0258 µg/mL and the “Mean IC50 (Curve)” value was 0.0264 µg/mL. Also, the “Microneutralization IC50, Fab” value in experiment [3] was 0.0264 µg/ml and 0.53 nM. Moreover, in the experiment with RSV F protein (purified), the koff was found to be 0.00028 s⁻¹; the kon was 781000 M⁻¹ s⁻¹ and 735000 M⁻¹ s⁻¹. In [8], the Kd is 0.172 nM, the koff amounted to 0.000112 s⁻¹ and the on-rate (kon) stood at 650000 M⁻¹ s⁻¹.

B8: A13a11 Fab (Fab, V domains shown)
VH: B1 VH with G57D, D60H, F105W
VL: B2 VL with L25P, F51Y, Y52R, L53H
As for B8, in [7], half-maximal inhibition (IC50) required 2.04 nM. In addition, in experiment [2], the “Mean IC50 (Control)” value worked out at 0.102 µg/mL and the “Mean IC50 (Curve)” value came to 0.12 µg/mL. Further, the “Microneutralization IC50, Fab” value in experiment [3] is 0.012 µg/ml and 2.4 nM. In the experiment with RSV F protein (purified), this molecule gave a koff of 0.00025 s⁻¹ and a kon of 735000 M⁻¹ s⁻¹. In addition, in experiment [8], the Kd worked out at 0.337 nM, the koff is 0.000229 s⁻¹ and the kon came out at 680000 M⁻¹ s⁻¹.
